Measured values as given in PMC4243239 (Nature communications, 2014).
Blank lines part the entries; values can stand above or below the binder they belong to.

Assays:
[1] = biological target: the molecule itself; experiment: SEC-MALS
[2] = biological target: T1, B. subtilis FtsZ, untagged (B. subtilis, UniProt P17865 1-382); experiment: SPR
T1 sequence: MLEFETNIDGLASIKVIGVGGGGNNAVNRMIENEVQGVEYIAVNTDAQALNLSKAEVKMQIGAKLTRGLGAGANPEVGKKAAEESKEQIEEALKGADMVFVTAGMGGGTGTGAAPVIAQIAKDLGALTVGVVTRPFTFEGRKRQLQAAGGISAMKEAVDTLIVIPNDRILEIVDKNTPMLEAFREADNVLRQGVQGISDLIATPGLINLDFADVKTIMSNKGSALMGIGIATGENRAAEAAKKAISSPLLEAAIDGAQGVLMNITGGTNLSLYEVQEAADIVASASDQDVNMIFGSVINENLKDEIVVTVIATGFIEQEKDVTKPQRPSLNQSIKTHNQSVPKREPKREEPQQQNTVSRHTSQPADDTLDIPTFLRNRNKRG

[3] = biological target: the molecule itself; experiment: crystal structure
[4] = biological target: T2, B. subtilis FtsZ with a 15-residue recombinant N-terminal T7 epitope tag (B. subtilis, UniProt P17865 1-382); experiment: cross-linking
T2 sequence (looked up): T1 sequence

Kd [2]: 13.7 ± 1.5 µM
B1: BsEzrA_(22–217), spectrin repeats one and two of B. subtilis EzrA (domain or fragment, UniProt O34894 22-217, looked up)
chain: RKKIYAEIDRLESWKIEILNRSIVEEMSKIKHLKMTGQTEEFFEKWREEWDEIVTAHMPKVEELLYDAEENADKYRFKKANQVLVHIDDLLTAAESSIEKILREISDLVTSEEKSREEIEQVRERYSKSRKNLLAYSHLYGELYDSLEKDLDEIWSGIKQFEEETEGGNYITARKVLLEQDRNLERLQSYIDDVPK
binding result [1]: binds

stoichiometry N [4]: 1 EzrA:FtsZ
B2: B. subtilis EzrA cytoplasmic domain lacking the N-terminal 21 residue trans-membrane helix, BsEzrA_(22-562) (domain or fragment, UniProt O34894 22-562, looked up)
chain: RKKIYAEIDRLESWKIEILNRSIVEEMSKIKHLKMTGQTEEFFEKWREEWDEIVTAHMPKVEELLYDAEENADKYRFKKANQVLVHIDDLLTAAESSIEKILREISDLVTSEEKSREEIEQVRERYSKSRKNLLAYSHLYGELYDSLEKDLDEIWSGIKQFEEETEGGNYITARKVLLEQDRNLERLQSYIDDVPKLLADCKQTVPGQIAKLKDGYGEMKEKGYKLEHIQLDKELENLSNQLKRAEHVLMTELDIDEASAILQLIDENIQSVYQQLEGEVEAGQSVLSKMPELIIAYDKLKEEKEHTKAETELVKESYRLTAGELGKQQAFEKRLDEIGKLLSSVKDKLDAEHVAYSLLVEEVASIEKQIEEVKKEHAEYRENLQALRKEELQARETLSNLKKTISETARLLKTSNIPGIPSHIQEMLENAHHHIQETVNQLNELPLNMEEAGAHLKQAEDIVNRASRESEELVEQVILIEKIIQFGNRFRSQNHILSEQLKEAERRFYAFDYDDSYEIAAAAVEKAAPGAVEKIKADISA
binding result [3]: binds
